From publication doi:10.1101/2021.10.12.464151 come the findings set out here.

Assay [1] concerns the target Kip3_(448) K257A-R262A (yeast). Description: BLI. (BLI is a label-free optical method that tracks binding on a fibre tip over time.)
In assay [2] the target is Kip3_(448)^R351A-R353A (yeast). Description: BLI.
Assay [3] addresses tubulin purified from bovine brains (αβ-tubulin heterodimer) (bovine).

Consider “tubulin purified from bovine brains (αβ-tubulin heterodimer) (complex)”, for which, in assay [1], the fold weaker affinity (increased Kd) relative to wild-type Kip3 (448) came out at 10 fold. This molecule had a fold lower affinity (against Kip3 (448)) in assay [2] of 1.8 fold.

B1: Kip3FL^K257A-R262A (natural protein)
chain: MNVPETRQSSIVVAIRVRPFTSMEKTRLVNEASGAEANFPGLGDSSLILPMSNNSDSDIDIDAEEGSTRSKRNSLLRRKVIRPEGIRKIVDCVDDRMLIFDPADRNPLNKVSDQVLNSMRARATKATASSINNSNATNKFSSQRRRHGGEIKFVFDKLFDETSSQARVYKETTSPLLDSVLDGFNSTVFAYGATGCGKTYTVSGTPSQPGIIFLAMEELFNKITDLKDEKDFEISLSYLEIYNERIRDLLKPETPSARLVIAEDTQNHIKVANLSYHHPNTVEDVMDLVVQGNINRTTSPTEANEVSSRSHAVLQIHIMQTNKLVDLTSQHTFATLSIIDLAGSERAAATRNRGIRLHEGANINRSLLALGNCINALCLNDGSRSCHIPYRDSKLTRLLKFSLGGNCKTVMIVCISPSSSHYDETLNTLKYANRAKEIKTKIIRNQQSLSRHVGSYLKMITEQKRQIEELREREEKMISLKLTKYKLNKEKIQLAINECVNRVQQTYAGVETYQVAKTLKSLILCKRRFLQMVKLEVDNLILLFEREESTAAEMQPVISNCRMISGQLYNKIHELEMKFDETDTLSSVIHQVHSIDLNKLREMEDWDETYDLVYLESCLNQISELQRNEILVNSSIMTEKLMSDPGLNSRFKFLSKWLMNRTPNIESIIQDLVHIDEEFESFARTFIANPDSNFTNTNINIINTTAADLAVPAETLQRQNFSQKKVKWTSPDLSPSPMIEPQPELEPELHQDQDAIASEVDVSMQDTTFNEQGPSTPSAPTTAVPRRKMRSSLLTHQSLLATARK
modifications: TMR (HALO-TMR ligand) on the HALO tag
Take B1: the plus-end dwell time on microtubules, against wild type in assay [3] is 2 fold.
